Results on one molecule are retold here after patent US20130347134A1 (published 2013).

The target in assay [1] is T1, murine platelet glycoprotein Ib alpha (GPIb α) on mouse platelets (mouse, UniProt O35930 17-734).
T1 construct: whole, on cells; Native receptor on mouse platelets or whole blood; also called murine GPIb α; mGPIb-α
T1 sequence (looked up): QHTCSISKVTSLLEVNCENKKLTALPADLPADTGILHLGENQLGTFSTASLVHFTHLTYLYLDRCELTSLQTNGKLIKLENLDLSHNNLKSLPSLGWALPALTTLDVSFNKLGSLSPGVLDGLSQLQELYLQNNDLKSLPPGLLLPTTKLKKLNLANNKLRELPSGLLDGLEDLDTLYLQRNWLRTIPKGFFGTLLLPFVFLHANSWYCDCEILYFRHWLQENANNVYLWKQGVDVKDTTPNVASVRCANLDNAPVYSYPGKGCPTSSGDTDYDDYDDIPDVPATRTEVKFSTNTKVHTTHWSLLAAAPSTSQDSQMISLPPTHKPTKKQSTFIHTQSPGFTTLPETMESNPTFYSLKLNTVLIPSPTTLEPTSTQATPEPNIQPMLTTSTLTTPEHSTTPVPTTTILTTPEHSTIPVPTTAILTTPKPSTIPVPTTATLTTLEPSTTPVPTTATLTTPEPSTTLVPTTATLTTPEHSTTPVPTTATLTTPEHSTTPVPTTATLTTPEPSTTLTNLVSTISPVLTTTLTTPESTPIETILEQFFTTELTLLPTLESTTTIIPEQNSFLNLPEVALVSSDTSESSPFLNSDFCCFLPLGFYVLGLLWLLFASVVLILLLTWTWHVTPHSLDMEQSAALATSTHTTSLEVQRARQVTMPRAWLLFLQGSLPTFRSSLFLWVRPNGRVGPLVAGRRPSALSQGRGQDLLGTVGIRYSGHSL
The experiment in a line: mouse whole blood perfused 4 min over surface-immobilized recombinant VWF-A1, 1600 s-1. As for the experimental part: (§1) Ex vivo platelet adhesion studies. Experiments were performed in a parallel-plate flow chamber as previously described (Offermanns, S., et al., 2006). […] Subsequently, the plate was washed and non-specific interactions blocked by the addition of TBS containing 3% BSA, pH 7.4 (1 hour, 37° C.). Human or murine plasma obtained from heparinized whole blood was added and the plates placed at 37° C. for an additional 2 hours. […] The number of platelets attached per unit area (0.07 mm²) and translocation velocities were determined by off-line analysis (Image-Pro Plus, Media Cybernetics). For GPIb α inhibition studies, the function-blocking mAb 6D1 (20 μg/ml) or mAb SZ2 (20 μg/ml; Beckman Coulter, Brea, Calif.) was added to anticoagulated human blood for 30 minutes prior to use. Experiments were performed in triplicate on two separate days. An ELISA was used to ensure equivalent coating concentration of plasma and recombinant proteins (Denis, C. et al., 1998).

Assay [2] has as its target T2, human platelet glycoprotein Ib alpha (GPIb α) on human platelets (human, UniProt P07359 17-652).
T2 construct: whole, on cells; Native receptor on washed platelets or whole blood; also called GPIb alpha; hGPIb-α
The experiment in a line: human whole blood over immobilized protein, parallel-plate flow chamber, 1600 s^-1. As for the experimental part: as §1

B1: recombinant wild-type murine VWF-A1 domain protein (amino acid residues 1238 to 1471), Example 3 (ligand)
chain: QEPGGLVAPPTDAPVSSTTPYVEDTPEPPLHNFYCSKLLDLVFLLDGSSMLSEAEFEVLKAFVVGMMERLHISQKRIRVAVVEYHDGSRAYLELKARKRPSELRRITSQIKYTGSQVASTSEVLKYTLFQIFGKIDRPEASHITLLLTASQEPPRMARNLVRYVQGLKKKKVIVIPVGIGPHASLKQIRLIEKQAPENKAFLLSGVDELEQRRDEIVSYLCDLAPEAPAPTQPP
notes: Generated in bacteria, with a single disulfide 1272-1458; also called murine rVWF-A1; WT murine VWF-A1 domain protein
On to B1, for which the binding result in assay [1] is “binds”. Moreover, in assay [2], the “platelet deposition relative to same-species control” value worked out at 25%.
